From article PMC2291454, “Functional characterisation of the TSC1–TSC2 complex to assess multiple TSC2 variants identified in single families affected by tuberous sclerosis complex” (BMC Medical Genetics, 2008) come the findings set out here.

The target of this test is T1, TSC1 (human, UniProt Q92574 1-1164).
T1 sequence (looked up): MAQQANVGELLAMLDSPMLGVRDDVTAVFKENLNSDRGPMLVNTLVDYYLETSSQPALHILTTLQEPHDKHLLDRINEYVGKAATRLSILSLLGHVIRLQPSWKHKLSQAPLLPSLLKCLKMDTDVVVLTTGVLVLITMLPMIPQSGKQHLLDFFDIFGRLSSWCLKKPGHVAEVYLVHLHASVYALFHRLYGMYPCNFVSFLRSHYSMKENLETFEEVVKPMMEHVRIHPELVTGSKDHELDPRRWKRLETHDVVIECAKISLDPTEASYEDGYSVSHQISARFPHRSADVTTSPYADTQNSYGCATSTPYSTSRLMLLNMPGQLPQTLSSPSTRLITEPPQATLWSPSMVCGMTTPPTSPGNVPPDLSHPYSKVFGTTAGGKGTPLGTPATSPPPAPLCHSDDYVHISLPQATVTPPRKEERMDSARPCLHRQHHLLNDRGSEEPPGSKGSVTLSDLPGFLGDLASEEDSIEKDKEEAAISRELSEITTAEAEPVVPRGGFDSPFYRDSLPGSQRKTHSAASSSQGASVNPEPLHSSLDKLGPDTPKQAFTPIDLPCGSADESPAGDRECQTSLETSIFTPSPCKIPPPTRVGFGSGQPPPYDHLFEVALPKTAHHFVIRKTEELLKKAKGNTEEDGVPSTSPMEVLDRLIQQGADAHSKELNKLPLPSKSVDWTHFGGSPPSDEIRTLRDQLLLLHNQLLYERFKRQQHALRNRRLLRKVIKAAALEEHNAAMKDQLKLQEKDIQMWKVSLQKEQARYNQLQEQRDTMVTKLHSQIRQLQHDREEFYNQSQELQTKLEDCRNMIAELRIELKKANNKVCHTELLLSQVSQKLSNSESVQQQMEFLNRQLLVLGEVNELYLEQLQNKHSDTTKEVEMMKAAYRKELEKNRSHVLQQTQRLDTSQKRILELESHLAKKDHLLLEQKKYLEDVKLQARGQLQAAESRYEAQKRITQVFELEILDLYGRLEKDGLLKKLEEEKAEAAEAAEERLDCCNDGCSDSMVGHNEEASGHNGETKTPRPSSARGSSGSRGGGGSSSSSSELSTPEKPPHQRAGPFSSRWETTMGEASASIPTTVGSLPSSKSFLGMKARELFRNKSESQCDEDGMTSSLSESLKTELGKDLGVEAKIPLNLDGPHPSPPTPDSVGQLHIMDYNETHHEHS
Put plainly: cell-based or functional assay.

B1: wild-type TSC2 (natural protein)
chain: not shown
As for B1, the “in vitro rheb GAP activity of the immunoprecipitated TSC1–TSC2 complex: rheb-bound GDP/GTP ratio after 90 minutes” value worked out at 1.4.

B2: TSC2 I820del variant (natural protein)
chain: not shown
On to B2, for which the “in vitro rheb GAP activity of the immunoprecipitated TSC1–TSC2 variant complex: rheb-bound GDP/GTP ratio after 90 minutes” value turned out to be 0.9.
